Measurements reported in paper PMC12246617, “Cryo-EM structures reveal the PP2A–B55α and Eya3 interaction that can be disrupted by a peptide inhibitor” (The Journal of Biological Chemistry, 2025).

B1: H79A: Eya3 H79A mutant protein from E. coli (protein, UniProt Q99504 1-573, looked up, variant H79A)
Protein phosphatase EYA3: MEEEQDLPEQPVKKAKMQESGEQTISQVSNPDVSDQKPETSSLASNLPMSEEIMTCTDYIPRSSNDYTSQMYSAKPYAAILSVPVSETAYPGQTQYQTLQQTQPYAVYPQATQTYGLPPFGALWPGMKPESGLIQTPSPSQHSVLTCTTGLTTSQPSPAHYSYPIQASSTNASLISTSSTIANIPAAAVASISNQDYPTYTILGQNQYQACYPSSSFGVTGQTNSDAESTTLAATTYQSEKPSVMAPAPAAQRLSSGDPSTSPSLSQTTPSKDTDDQSRKNMTSKNRGKRKADATSSQDSELERVFLWDLDETIIIFHSLLTGSYAQKYGKDPTVVIGSGLTMEEMIFEVADTHLFFNDLEECDQVHVEDVASDDNGQDLSNYSFSTDGFSGSGGSGSHGSSVGVQGGVDWMRKLAFRYRKVREIYDKHKSNVGGLLSPQRKEALQRLRAEIEVLTDSWLGTALKSLLLIQSRKNCVNVLITTTQLVPALAKVLLYGLGEIFPIENIYSATKIGKESCFERIVSRFGKKVTYVVIGDGRDEEIAAKQHNMPFWRITNHGDLVSLHQALELDFL
B2: Eya3: Eya3 protein purified from Escherichia coli (mEya3) or HEK293 FreeStyle cells (FLAG-hEya3) (protein)
chain: MEEEQDLPEQPVKKAKMQESGEQTISQVSNPDVSDQKPETSSLASNLPMSEEIMTCTDYIPRSSNDYTSQMYSAKPYAHILSVPVSETAYPGQTQYQTLQQTQPYAVYPQATQTYGLPPFGALWPGMKPESGLIQTPSPSQHSVLTCTTGLTTSQPSPAHYSYPIQASSTNASLISTSSTIANIPAAAVASISNQDYPTYTILGQNQYQACYPSSSFGVTGQTNSDAESTTLAATTYQSEKPSVMAPAPAAQRLSSGDPSTSPSLSQTTPSKDTDDQSRKNMTSKNRGKRKADATSSQDSELERVFLWDLDETIIIFHSLLTGSYAQKYGKDPTVVIGSGLTMEEMIFEVADTHLFFNDLEECDQVHVEDVASDDNGQDLSNYSFSTDGFSGSGGSGSHGSSVGVQGGVDWMRKLAFRYRKVREIYDKHKSNVGGLLSPQRKEALQRLRAEIEVLTDSWLGTALKSLLLIQSRKNCVNVLITTTQLVPALAKVLLYGLGEIFPIENIYSATKIGKESCFERIVSRFGKKVTYVVIGDGRDEEIAAKQHNMPFWRITNHGDLVSLHQALELDFL
modifications: left off: FLAG, end not stated, kept

Legend:
[1] = test system: B55α (His-B55); assay: Microscale thermophoresis (MST) binding of Eya3 to labeled His-B55; design: species or system human
Text: We expressed and purified Eya3 protein from Escherichia coli and the His-B55α subunit from insect cells (Fig. S1). In the remainder of the article, we will use B55 to represent B55α for simplicity and PP2A–B55 to represent the holoenzyme containing the A, B55, and C subunits. We labeled His-B55 with the RED–Tris–NTA dye and carried out microscale thermophoresis (MST) experiments with increasing concentrations of Eya3.
The modeled Eya3 peptide (residues 65–86) interacts mostly with residues on blades 3 and 4 of the β-propeller on the B55 surface (including residues on the β2D and β3A loop, β3B and β3C loop, and β3D and β4A loop) and with residues on the α1 and α2 helix positioned above blade 5, as well as the α2 and β6A loop (Fig. 1F). In particular, residue H79^Eya3 forms pi–pi or pi–cation stacking with H179^B55 and a hydrogen bond with D197^B55 (Fig. 2A). […] Furthermore, Y77^Eya3 forms a hydrogen bond with the main chain carbonyl of L225^B55, and K75^Eya3 forms another hydrogen bond with Y337^B55 (Fig. 2, B and C). […] We expressed and purified Eya3 K75A, Y77A, and H79A mutant proteins from E. coli and carried out MST experiments with fluorescently labeled His-B55. […] While we were working on the structure of PP2A–B55 + Eya3, Padi et al. ([84]) published the cryo-EM structure of PP2A–B55 in complex with an Eya3 peptide (residues 62–108) on bioRxiv.
(§1) FLAG-hB55, FLAG-hEya3, GFP, and GFP-B55i were cloned into the pCAG vector; (GST)-mEya3 was cloned into pGEX-6p1; His-hB56γ1 was cloned into pGEX-4T1; and His-hB55 was cloned in pFASTbac, all using the NEBuilder HiFi DNA Assembly Cloning Kit (New England Biolabs). h and m represent human and mouse proteins, respectively.
GST-mEya3 and mutants were expressed in BL21 cells. Cells were lysed in lysis buffer containing 50 mM Tris (pH 7.5), 250 mM NaCl, 5% glycerol, 1 mM DTT, and protease inhibitor cocktail (PIC; Thermo Scientific). Lysis was done in ice with sonication using 4 × 45 s pulses with 2-min off periods. NaCl was brought up to 0.5 M using 5 M NaCl, and the lysate was centrifuged for 40 min at 18,000g. Supernatant was gravity-flown over glutathione resin twice. Resin was washed with 100 ml of lysis buffer. GST was cleaved with PreScission protease and eluted into lysis buffer. Eluates were pooled and concentrated with Amicon Ultra Centrifugal filters. Concentrated protein was separated on a pre-equilibrated S200 column for size-exclusion chromatography. Peaks were combined, concentrated again, aliquoted, and stored at −80 °C.
His-B55 was expressed in Hi5 cells. […]
His-B55 or His-B56γ1 labeled with […] (NanoTemper) was added to serial dilutions of mEya3 in PBS with 0.05% Tween-20. The samples were then read with a Monolith NT.115^Pico (NanoTemper) according to the manufacturer’s instructions.

[2] = test system: B55; conditions: Eya3 mutant; cited from earlier work
Text: The modeled Eya3 peptide (residues 65–86) interacts mostly with residues on blades 3 and 4 of the β-propeller on the B55 surface (including residues on the β2D and β3A loop, β3B and β3C loop, and β3D and β4A loop) and with residues on the α1 and α2 helix positioned above blade 5, as well as the α2 and β6A loop (Fig. 1F). In particular, residue H79^Eya3 forms pi–pi or pi–cation stacking with H179^B55 and a hydrogen bond with D197^B55 (Fig. 2A). […] Furthermore, Y77^Eya3 forms a hydrogen bon ...

[3] = test system: Myc; conditions: PP2A–B55α binding mutant; cited from earlier work
Text: (§2) We have shown that Eya proteins directly interact with the PP2A–B55α but not B56 subunit. […] Moreover, all Eya family members can interact with PP2A–B55α through analogous disordered regions in their NTDs ([27], [46]).

[4] = test system: triple-negative breast cancer (TNBC) tumor; conditions: PP2A–B55α binding mutant; cited from earlier work
Text: as §2

[5] = test system: PP2A–B55; conditions: malachite green assay, peptide substrate KRpTIRR; 50 mM Tris [pH 7.5], 50 mM NaCl, 5 mM MgCl2, 0.1 mM EDTA; cited from earlier work
Text: To identify the factor that led to this discrepancy, we first repeated our as ...

[6] = test system: Eya3 and B55 complex (FLAG-hEya3 + His-B55); assay: Mass photometry of Eya3 and B55 complex formation and its disruption by B55i; assay type: binding, human; conditions: no B55i, 20 mM Tris (pH 8), 250 mM NaCl, 1 mM MnCl2, 0.5 mM TCEP, molar ratio 1.5:1, diluted to 100 nM
Text: To evaluate the effect of B55i in cells, we expressed the B55i peptide as a GFP fusion on a plasmid in 66cl4 TNBC cells.
B, MST binding affinity curve showing the interaction between mEya3 and His-B55α. C, B55i disruption of the mEya3 and His-B55α interaction on MST. […] The amount of GFP and GFP-B55i expressed was also quantified using eGFP absorbance at 488 nm and normalized to total protein in the cell lysate. The datasets in all panels represent three independent biological replicates. Error bars represent the standard deviation. Statistical data analysis was done using Fmax tests followed by two-tailed, homoscedastic t tests. ∗p < 0.05, ∗∗p < 0.01, and ∗∗∗∗p < 0.0001. MST, microscale thermophoresis; TNBC, triple-negative breast cancer. […] It is uncertain whether these count as molecular weight results or as excluded spectrum labels.
as §1
hEya3 and PP2A–B55 were combined in 20 mM Tris (pH 8), 250 mM NaCl, 1 mM MnCl2, and 0.5 mM TCEP at a molar ratio of 1.5:1. […] Immediately prior to reading, the solution was diluted to 100 nM. Samples were analyzed on the Refeyn TwoMP (Refeyn).

[7] = test system: Myc pT58; conditions: cited from earlier work
Text: The weak inhibition of the PP2A–B55 activity by its B55 binders may have different consequences i ...

Molecule | binding between Eya3 and B55 (mutants) ([1]; fluorescently labeled His-B55, vs Eya3 WT) | interaction between Eya3 and B55 [2] | Myc stabilization [3] | TNBC tumor metastasis [4] | Kd ([1]; His-B55 labeled with Red–Tris–NTA dye, serial dilutions of Eya3 (mEya3, E. coli), PBS with 0.05% Tween-20, Monolith NT.115 Pico, three independent biological replicates (stated for Fig. 1A)) [µM] | phosphatase activity of PP2A–B55 [5] | Eya3 and B55 complex formation [6] | dephosphorylation of pT58 on Myc [7]
B1 | significantly reduce the binding between Eya3 and B55 | dramatically reduce the interaction between Eya3 and B55 | impeded Myc stabilization | impeded |  |  |  | 
B2 |  |  |  |  | 1.04 | increases the phosphatase activity of PP2A–B55 | Eya3 and B55 form a complex | clearly increases the dephosphorylation of pT58 on Myc
